Assay results taken from paper PMC7278352.

Target: pre-formed paclitaxel-stabilized microtubules (tubulin isolated from porcine brain) (porcine) (UniProt P02550)
Test: co-sedimentation; pre-formed paclitaxel-stabilized MTs (100 ug/ml tubulin) incubated 30 min at room temperature with 250 ug/ml protein in General tubulin buffer (80 mM PIPES, 0.5 mM EGTA, 2 mM MgCl2, pH 6.9) with 1 mM GTP and 5% glycerol; spun through a 60% glycerol cushion at 100,000 x g for 40 min; band intensity in pellet and supernatant on SDS-PAGE, 5 repeats

UniProt P02550, sequence (P02550 whole entry, looked up): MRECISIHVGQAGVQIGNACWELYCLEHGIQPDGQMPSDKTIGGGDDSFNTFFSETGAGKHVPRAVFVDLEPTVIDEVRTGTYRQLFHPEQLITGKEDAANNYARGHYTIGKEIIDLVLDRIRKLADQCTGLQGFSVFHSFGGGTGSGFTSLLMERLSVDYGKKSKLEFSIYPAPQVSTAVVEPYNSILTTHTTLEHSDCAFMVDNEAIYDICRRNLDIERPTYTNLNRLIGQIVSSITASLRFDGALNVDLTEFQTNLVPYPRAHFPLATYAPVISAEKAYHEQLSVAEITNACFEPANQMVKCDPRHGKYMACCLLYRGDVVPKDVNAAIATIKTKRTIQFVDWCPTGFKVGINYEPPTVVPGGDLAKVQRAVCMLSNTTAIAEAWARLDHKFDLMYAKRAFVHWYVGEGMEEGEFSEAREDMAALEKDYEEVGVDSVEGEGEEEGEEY

percent of protein pelleted with MTs: 78%
Substance: microtubule-associated protein fraction (MAPF)
